Positions of bridges follow the written chain, without caps; N, C: chain ends. Non-standard residues stand in square brackets, D forms with d. No end group written: not given here. *: point of attachment. Acetyl(2-(4-imidazolyl)) = O=C(Cc1c[nH]cn1)*; Aib = CC(C)(N)C(=O)O
Legend:
Test in all cases: cell-based or functional assay
[1] = biological target: human GCG receptor (human, UniProt P47871 26-477)
[2] = biological target: human GLP-1 receptor (human, UniProt P43220 24-463)
[3] = biological target: T1, human GIP receptor (human, UniProt P48546 22-466)
T1 sequence (looked up): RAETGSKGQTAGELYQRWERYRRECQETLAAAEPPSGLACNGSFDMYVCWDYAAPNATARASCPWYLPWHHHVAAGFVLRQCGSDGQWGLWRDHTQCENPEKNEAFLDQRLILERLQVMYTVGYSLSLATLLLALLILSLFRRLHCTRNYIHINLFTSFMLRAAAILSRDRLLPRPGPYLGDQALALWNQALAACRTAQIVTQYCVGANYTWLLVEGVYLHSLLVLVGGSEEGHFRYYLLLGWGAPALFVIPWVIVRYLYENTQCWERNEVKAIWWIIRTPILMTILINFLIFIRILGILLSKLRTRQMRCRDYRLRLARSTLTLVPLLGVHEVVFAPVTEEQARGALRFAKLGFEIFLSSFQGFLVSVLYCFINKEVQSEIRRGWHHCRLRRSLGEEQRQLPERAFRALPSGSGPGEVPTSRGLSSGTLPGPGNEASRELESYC

human GCG receptor, sequence (P47871 26-477): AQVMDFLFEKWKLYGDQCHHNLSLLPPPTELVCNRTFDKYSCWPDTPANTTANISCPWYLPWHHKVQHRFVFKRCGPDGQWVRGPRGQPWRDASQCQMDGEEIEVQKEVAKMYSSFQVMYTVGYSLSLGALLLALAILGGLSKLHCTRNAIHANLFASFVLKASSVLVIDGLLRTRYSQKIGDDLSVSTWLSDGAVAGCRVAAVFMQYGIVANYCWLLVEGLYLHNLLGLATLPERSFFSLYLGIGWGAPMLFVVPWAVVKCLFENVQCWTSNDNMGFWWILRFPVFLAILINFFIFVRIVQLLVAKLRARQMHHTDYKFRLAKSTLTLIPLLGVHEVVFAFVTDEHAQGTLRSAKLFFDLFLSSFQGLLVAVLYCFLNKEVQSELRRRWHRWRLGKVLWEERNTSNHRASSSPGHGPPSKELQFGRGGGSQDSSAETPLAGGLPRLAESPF

| Binder | In vitro Activity Compared to Native Peptide (%) vs. Glucagon [1] | In vitro Activity Compared to Native Peptide (%) vs. GLP-1 [2] | In vitro Activity Compared to Native Peptide (%) vs. GIP [3] |
| --- | --- | --- | --- |
| H[Aib]QGTFTSDYSKYLDEKRAKEFVQWLLDHHPSSGQPPPSC (bridge 16-20) [triple agonist of SEQ ID NO: 50] | 50.5% | 67.4% | 2.7% |
| [Acetyl(2-(4-imidazolyl))][Aib]QGTFTSDKSSYLDERAAQDFVQWLLDGGPSSGAPPPSS [triple agonist of SEQ ID NO: 38] |  | 2.3% |  |
| H[Aib]QGTFTSDKSKYLDECAAQDFVQWLLDGGPSSGAPPPS [triple agonist of SEQ ID NO: 41] | < 0.1% | 34.3% | < 0.1% |
| H[Aib]QGTFTSDYSKYLDEKRQKEFVNWLLAQKC (bridge 16-20) [triple agonist of SEQ ID NO: 34] | 0.92% | 19.1% | 0.6% |
| H[Aib]QGTFTSDYSKYLDGQHAQCFVAWLLAGGGPSSGAPPPS [triple agonist of SEQ ID NO: 39] | 0.53% | 13.9% | < 0.1% |
| H[Aib]QGTFTSDYSKYLDEKRQKEFVQWLLNTC (bridge 16-20) [triple agonist of SEQ ID NO: 51] | 2% | 14.4% | 0.1% |
| H[Aib]QGTFTSDYSIAMDEIHQKDFVNWLLNTKC (bridge 16-20) [triple agonist of SEQ ID NO: 35] | < 0.1% | 7.5% | 1.3% |
| H[Aib]QGTFTSDKSKYLDERACQDFVQWLLDGGPSSGAPPPS [triple agonist of SEQ ID NO: 40] | < 0.1% | 75.2% | < 0.1% |
| Y[Aib]QGTFTSDYSKYLDEKRAKEFVQWLLDHHCSSGQPPPS (bridge 16-20) [triple agonist of SEQ ID NO: 43] | 88.4% | 12.6% | 3.7% |
| H[Aib]QGTFTSDVSSYLLGQQQKEFIAWLVKGGGPSSGAPPPSC (ends and bridges not checked) [triple agonist of SEQ ID NO: 5] | < 0.1% | 42.1% | < 0.1% |
| H[Aib]QGTFTSDVSSYLLGQQQKEFIAWLVKGC [triple agonist of SEQ ID NO: 4] | < 0.1% | 8.5% | < 0.1% |
| HGQGTFTSDCSKQLDGQAAQEFVAWLLAGGPSSGAPPPS [triple agonist of SEQ ID NO: 44] | < 0.1% | 1.3% | < 0.1% |
| HGQGTFTSDCSKYLDEQHAQEFVAWLLAGGPSSGAPPPS [triple agonist of SEQ ID NO: 46] | < 0.1% | 1.4% | < 0.1% |
| HGQGTFTSDCSKYLDGQRAQEFVAWLLAGGPSSGAPPPS [triple agonist of SEQ ID NO: 47] | < 0.1% | 2.4% | < 0.1% |
| HGQGTFTSDCSKYLDGQRAQDFVNWLLAGGPSSGAPPPS [triple agonist of SEQ ID NO: 48] | < 0.1% | 1.5% | < 0.1% |
| HGQGTFTSDCSKYMDGQAAQDFVAWLLAGGPSSGAPPPS [triple agonist of SEQ ID NO: 45] | < 0.1% | 6.6% | < 0.1% |
| H[Aib]EGTFTSDYSIAMDEIHQKDFVNWLLAQC (bridge 16-20) [triple agonist of SEQ ID NO: 53] | 8.4% | 161% | 1.3% |
| Y[Aib]QGTFTSDYSKYLDEKRAKEFVQWLLDHHPSSGQPPPSC (bridge 16-20) [triple agonist of SEQ ID NO: 42] | 206% | 33.9% | 7.8% |
| {Acetyl(2-(4-imidazolyl))}-[Aib]QGTFTSDYSICMDEIHQKDFVNWLLNTK (bridge 15-19) [triple agonist of SEQ ID NO: 49] | < 0.1% | 29.8% | 3.3% |
| H[Aib]EGTFTSDYSIAMDEIHQKDFVDWLLAEC (bridge 16-20) [triple agonist of SEQ ID NO: 54] | 1.4% | 30.6% | 0.1% |
| H[Aib]QGTFTSDVSSYLDGQAAKEFIAWLVKGC [triple agonist of SEQ ID NO: 1] | < 0.1% | 3.2% | < 0.1% |
| H[Aib]QGTFTSDYSKYLDECRQKEFVQWLLNGGPSSGAPPPSG (bridge 16-20) [triple agonist of SEQ ID NO: 37] | 6.21% | 236% | 2.2% |
| H[Aib]QGTFTSDYSKYLDEKRQKEFVQWLLDTC (bridge 16-20) [triple agonist of SEQ ID NO: 52] | 7.5% | 44.1% | 0.3% |
| H[Aib]QGTFTSDVSSYLDGQAAKEFVAWLLKGC [triple agonist of SEQ ID NO: 6] | < 0.1% | 17% | < 0.1% |
| H[Aib]QGTFTSDYSIAMDEIHQKDFVNWLLNTC (bridge 16-20) [triple agonist of SEQ ID NO: 57] | < 0.1% | 11.7% | 0.3% |
| H[Aib]QGTFTSDYSKYLCEKRQKEFVQWLLNGGPSSGAPPPSG (bridge 16-20) [triple agonist of SEQ ID NO: 36] | 0.39% | 37.4% | 0.2% |
| H[Aib]QGTFTSDYSIAMDEIHQKDFVNWLLAQC (bridge 16-20) [triple agonist of SEQ ID NO: 55] | 0.7% | 27.1% | 2.4% |
| H[Aib]QGTFTSDYSKYLDEKRQKEFVNWLLAQC (bridge 16-20) [triple agonist of SEQ ID NO: 56] | 4.9% | 57.9% | 0.8% |
